US20240301086A1 (APTEVO RESEARCH AND DEVELOPMENT, published 2024)
Where a chain is given by its changes, count along the chain named.

Key:
[1] = target: T1, Full-length Human PSMA (TSC435), on cells (human, UniProt Q04609 1-750); assay: flow cytometry on C4-2B cells, PE goat anti-human IgG Fc secondary, MFI (median)
T1 construct: also called CHOK1SV/huPSMA; PSMA on C4-2B, 22RV1, LNCaP, MDA-PCa-2b cells
Protocol: The PSMA-binding domain PSMA01023 was evaluated in several different structural formats, including an alternative Fc region with different mutations to eliminate effector function. The PSMA01023 binding domain was configured in scFv-Fc format in VL-VH (PSMA01036) and VH-VL (PSMA01037) orientations and in Fc-scFv format in VL-VH (PSMA01040) and VH-VL (PSMA01041) orientations. These molecules were evaluated for the impact of the orientation of the scFv domains (VH-VL versus VL-VH) and position on the Fc (N- vs. C-terminus) on binding to PSMA (+) tumor cells.
C4-2B and 22RV1 cells were labelled at approximately 100,000 cells per well, in 96-well plates, with serial dilutions of PSMA-binding constructs ranging from of 0.1 to 300 nM for 30 min on ice, followed by washes and incubation with PE-labeled minimum cross species reactive secondary antibody, goat anti-human IgG Fcγ, F(ab′)2 (Jackson Laboratory) for 30 minutes on ice. Washes and incubation were done in staining buffer (PBS with 0.2% BSA and 2 mM EDTA). Cells were collected using a BDM LSRII or a BD FACSymphony™ flow cytometer (BD Biosciences) and analyzed by FlowJo flow cytometry analysis software. Median fluorescence intensity (MFI) of bound molecules on cells was determined after exclusion of doublets. Graphs were plotted using GraphPad Prism 7®.

[2] = target: T2, human CD3ε in the TCR/CD3 complex on Jurkat cells (human, UniProt P07766 23-207); assay: flow cytometry, Jurkat cells (approximate calculation)
T2 construct: whole, on cells; On the cells it stands in the whole TCR/CD3 complex; also called CD3 (+) cells; CD3-expressing Jurkat cells
T2 sequence (P07766 23-207, one chain of several): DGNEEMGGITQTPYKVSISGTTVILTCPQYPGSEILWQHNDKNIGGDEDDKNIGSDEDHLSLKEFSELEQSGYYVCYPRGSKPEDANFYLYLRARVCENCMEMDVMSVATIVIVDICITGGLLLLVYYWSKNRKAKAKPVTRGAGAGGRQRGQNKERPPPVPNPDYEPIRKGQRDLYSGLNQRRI
Protocol: Jurkat and C4-2B cells were labelled at approximately 100,000 cells per well, in 96-well plates, with serial dilutions of bispecific constructs ranging in concentration from of 0.1 to 300 nM, for 30 min on ice. Primary label was followed by washes and incubation with PE-labeled minimum cross species reactive secondary antibody, goat anti-human IgG Fcγ, F(ab′)2 (Jackson Laboratory) for 30 minutes on ice. Washes and incubation were done in staining buffer (PBS with 0.2% BSA and 2 mM EDTA). Cells were collected using an BD™ LSRII or a BD FACSymphony™ flow cytometer (BD Biosciences) and analyzed by FlowJo flow cytometry analysis software. Median fluorescence intensity (MFI) of bound molecules on cells was determined after exclusion of doublets. Results were plotted and nonlinear regression analysis to determine EC50 values was performed using GraphPad Prism 7® graphing and statistics software.
On Jurkat cells (FIG. 11B), a range of binding potencies was observed. […] Swapping the orientation of the CD3-binding domain from VH-VL (PSMA01071) to VL-VH (PSMA01086) further reduced binding to CD3 in the C-terminus. The maximum CD3-binding signal differed between the constructs with N-terminal CD3-binding domain constructs showing the highest maximum binding. However, potency (EC50) and not maximum binding correlated with function, as will be shown in the next example.

[3] = target: T2, human CD3ε in the TCR/CD3 complex on …; assay: flow cytometry on Jurkat cells, PE goat anti-human IgG Fc secondary, MFI (median)
[4] = target: T1, Full-length Human PSMA (TSC435), on …; assay: flow cytometry on C4-2B cells, PE goat anti-human IgG Fc secondary, MFI (median); remark: listed apart in the source
[5] = target: T2, human CD3ε in the TCR/CD3 complex on …; assay: cell-based or functional assay
mIgG Fc-human PSMA ECD = target: T3, mIgG Fc-human PSMA ECD (human); assay: SPR (Biacore T200), bispecific amine-coupled, mFc-PSMA dimer 1-81 nM as analyte, 1:1 fit
T3 construct: Called PSMA dimer in the SPR method; also called mFc-Hu PSMA ECD; murine Fc-tagged human PSMA ECD
Protocol: (§1) SPR studies were performed on a subset of bispecific constructs binding to Human and cynomolgus primate PSMA ectodomain (ECD) fused to the c-terminus of a murine IgG1 Fc region. These experiments were conducted at 25° C. in dPBS (Gibco, 14040-133) with 0.2% BSA buffer on a Biacore T200 system. Bispecific constructs were immobilized at a density of ˜2,000-4,000 response units (RU) onto individual flow cells of a CM5 research-grade sensor chip (GE) by standard amine coupling chemistry, leaving one flow cell surface unmodified as the reference. Using a multi-cycle kinetics mode, a buffer blank and […] different concentrations of the PSMA dimer ranging from 1 nM to 81 nM in dPBS with 0.2% BSA were sequentially injected through each flow cell at 30 μL/min for 300 seconds followed by a 600 second dissociation phase. Regeneration was achieved by injection of 10 mM glycine pH 2.0 at a flow rate of 30 μL/min for 40 seconds followed by dPBS with 0.2% BSA buffer stabilization for 1 min.
(§2) Sensorgrams obtained from kinetic SPR measurements were analyzed by the double subtraction method. The signal from the reference flow cell was subtracted from the analyte binding response obtained from flow cells with captured ligands. The buffer blank response was then subtracted from analyte binding responses and the final double-referenced data were analyzed with Biacore T200 Evaluation software (2.0, GE), globally fitting data to derive kinetic parameters. All sensorgrams were fitted using a simple one-to-one binding model.

mIgG Fc-cyno PSMA ECD = target: T4, mIgG Fc-cyno PSMA ECD (cynomolgus monkey); assay: as above
T4 construct: Called PSMA dimer in the SPR method; also called mFc-Cyno PSMA ECD; murine Fc-tagged cyno PSMA ECD
T4 chain: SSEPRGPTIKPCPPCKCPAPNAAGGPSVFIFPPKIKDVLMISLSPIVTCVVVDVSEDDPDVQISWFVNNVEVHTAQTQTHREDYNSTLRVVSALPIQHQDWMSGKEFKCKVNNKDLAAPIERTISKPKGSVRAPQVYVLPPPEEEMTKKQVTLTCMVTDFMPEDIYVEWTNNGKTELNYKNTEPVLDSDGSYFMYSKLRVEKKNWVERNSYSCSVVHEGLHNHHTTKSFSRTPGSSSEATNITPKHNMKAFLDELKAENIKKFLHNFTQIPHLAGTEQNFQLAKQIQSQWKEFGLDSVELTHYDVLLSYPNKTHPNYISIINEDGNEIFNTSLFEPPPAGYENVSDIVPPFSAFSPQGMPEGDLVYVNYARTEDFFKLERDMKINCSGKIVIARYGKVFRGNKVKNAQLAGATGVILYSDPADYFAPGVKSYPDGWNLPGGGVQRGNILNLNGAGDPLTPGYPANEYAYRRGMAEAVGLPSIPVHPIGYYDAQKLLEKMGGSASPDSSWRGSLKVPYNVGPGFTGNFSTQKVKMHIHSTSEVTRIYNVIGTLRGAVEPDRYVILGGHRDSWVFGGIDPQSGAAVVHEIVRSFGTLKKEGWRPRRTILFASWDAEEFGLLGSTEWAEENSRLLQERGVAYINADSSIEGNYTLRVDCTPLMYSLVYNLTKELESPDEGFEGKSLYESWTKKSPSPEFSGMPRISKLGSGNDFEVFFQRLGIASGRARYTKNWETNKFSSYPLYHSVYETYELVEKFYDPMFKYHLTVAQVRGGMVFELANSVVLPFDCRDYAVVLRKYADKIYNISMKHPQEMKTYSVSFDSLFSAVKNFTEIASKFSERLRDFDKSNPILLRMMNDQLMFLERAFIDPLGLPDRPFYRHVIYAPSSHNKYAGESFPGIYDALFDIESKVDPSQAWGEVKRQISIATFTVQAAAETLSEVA
Protocol: as §1, §2

[6] = target: T2, human CD3ε in the TCR/CD3 complex on …; assay: flow cytometry on Jurkat cells, MFI (median)
[7] = target: T5, Human PSMA ECD-AFH (TSC033), recombinant dimeric PSMA ECD (human, UniProt Q04609 44-750); assay: SPR (Biacore T200), human PSMA dimer ECD 10X His (TSC033), 1:1 fit
T5 construct: SEC-purified dimer; also called HuPSMA-AFH; Avi-His-Human PSMA ECD
T5 sequence (Q04609 other isoform, or with tags, fused parts or gaps): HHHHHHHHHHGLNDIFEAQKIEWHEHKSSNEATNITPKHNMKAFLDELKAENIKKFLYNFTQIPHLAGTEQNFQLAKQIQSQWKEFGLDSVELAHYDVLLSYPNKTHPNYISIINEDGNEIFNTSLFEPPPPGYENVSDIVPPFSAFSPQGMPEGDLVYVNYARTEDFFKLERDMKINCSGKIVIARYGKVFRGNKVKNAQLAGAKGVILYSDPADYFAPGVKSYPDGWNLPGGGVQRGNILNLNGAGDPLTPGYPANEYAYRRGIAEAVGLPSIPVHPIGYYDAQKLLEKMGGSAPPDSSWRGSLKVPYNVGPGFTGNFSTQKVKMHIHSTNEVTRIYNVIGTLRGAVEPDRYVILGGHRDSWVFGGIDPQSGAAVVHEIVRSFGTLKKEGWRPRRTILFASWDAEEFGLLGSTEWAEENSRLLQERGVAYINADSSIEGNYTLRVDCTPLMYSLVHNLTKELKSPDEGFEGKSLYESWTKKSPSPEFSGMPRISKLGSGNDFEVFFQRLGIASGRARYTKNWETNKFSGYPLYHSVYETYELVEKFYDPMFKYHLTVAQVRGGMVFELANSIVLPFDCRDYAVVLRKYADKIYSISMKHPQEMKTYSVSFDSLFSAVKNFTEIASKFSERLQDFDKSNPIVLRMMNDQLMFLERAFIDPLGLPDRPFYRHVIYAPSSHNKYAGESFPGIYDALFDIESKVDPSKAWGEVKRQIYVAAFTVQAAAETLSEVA

T1 sequence (Q04609 whole entry): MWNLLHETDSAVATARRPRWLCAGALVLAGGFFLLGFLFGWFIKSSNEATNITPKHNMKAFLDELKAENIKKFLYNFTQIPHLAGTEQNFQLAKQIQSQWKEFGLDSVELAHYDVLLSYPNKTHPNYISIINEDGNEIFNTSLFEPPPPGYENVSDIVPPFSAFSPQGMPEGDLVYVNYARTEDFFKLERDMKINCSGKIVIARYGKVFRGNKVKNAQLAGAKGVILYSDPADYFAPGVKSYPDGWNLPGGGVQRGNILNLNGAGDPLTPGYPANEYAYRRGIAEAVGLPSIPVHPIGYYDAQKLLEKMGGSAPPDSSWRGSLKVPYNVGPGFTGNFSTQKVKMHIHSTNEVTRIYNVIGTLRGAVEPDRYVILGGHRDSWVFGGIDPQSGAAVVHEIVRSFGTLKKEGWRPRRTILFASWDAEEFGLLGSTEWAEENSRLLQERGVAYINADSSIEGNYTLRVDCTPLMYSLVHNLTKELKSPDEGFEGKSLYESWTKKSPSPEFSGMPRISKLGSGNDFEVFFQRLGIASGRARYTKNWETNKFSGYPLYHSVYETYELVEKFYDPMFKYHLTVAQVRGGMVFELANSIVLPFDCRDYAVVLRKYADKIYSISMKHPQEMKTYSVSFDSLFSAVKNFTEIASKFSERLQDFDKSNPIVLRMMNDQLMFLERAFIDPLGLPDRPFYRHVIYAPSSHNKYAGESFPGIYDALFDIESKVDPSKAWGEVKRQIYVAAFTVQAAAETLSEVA

B1: PSMA01041 Fc-linker-anti PSMA scFv (Fc fusion)
chain: SSEPKSSDKTHTCPPCPAPPAAAPSVFLFPPKPKDTLMISRTPEVTCVVVDVSHEDPEVKFNWYVDGVEVHNAKTKPREEQYNSTYRVVSVLTVLHQDWLNGKEYKCAVSNKALPAPIEKTISKAKGQPREPQVYTLPPSRDELTKNQVSLTCLVKGFYPSDIAVEWESNGQPENNYKTTPPVLDSDGSFFLYSKLTVDKSRWQQGNVFSCSVMHEALHNHYTQKSLSLSPGGGGSPSQVQLVQSGAEVKKPGASVKVSCKASGYTFTDYYMHWVRQAPGQGLEWMGYFNPYNDYTRYAQKFQGRVTMTRDTSTSTVYMELSSLRSEDTAVYYCARSDGYYDAMDYWGQGTTVTVSSGGGGSGGGGSGGGGSGGGGSDIQMTQSPSTLSASVGDRVTITCRASKSISKYLAWYQQKPGKAPKLLIHSGSSLESGVPSRFSGSGSGTEFTLTISSLQPDDFATYYCQQHIEYPWTFGQGTKVEIKR
[1]
  binding result: binds

B2: PSMA01071 Anti PSMA scFv x Fc; Anti PSMA scFv x Fc x Anti CD3 scFv (bispecific antibody)
chain 1: QVQLVQSGAEVKKPGASVKVSCKASGYTFTDYYMHWVRQAPGQGLEWMGYFNPYNDYTRYAQKFQGRVTMTRDTSTSTVYMELSSLRSEDTAVYYCARSDGYYDAMDYWGQGTTVTVSSGGGGSGGGGSGGGGSGGGGSDIQMTQSPSSLSASVGDRVTITCRASKSISKYLAWYQQKPGKAPKLLIHSGSSLESGVPSRFSGSGSGTEFTLTISSLQPDDFATYYCQQHIEYPWTFGQGTKVEIKEPKSSDKTHTCPPCPAPPAAAPSVFLFPPKPKDTLMISRTPEVTCVVVDVSHEDPEVKFNWYVDGVEVHNAKTKPREEQYNSTYRVVSVLTVLHQDWLNGKEYKCAVSNKALPAPIEKTISKAKGQPREPQVYTLPPSRDELTKNQVSLWCLVKGFYPSDIAVEWESNGQPENNYKTTPPVLDSDGSFFLYSKLTVDKSRWQQGNVFSCSVMHEALHNHYTQKSLSLSPG
chain 2: QVQLVQSGAEVKKPGASVKVSCKASGYTFTDYYMHWVRQAPGQGLEWMGYFNPYNDYTRYAQKFQGRVTMTRDTSTSTVYMELSSLRSEDTAVYYCARSDGYYDAMDYWGQGTTVTVSSGGGGSGGGGSGGGGSGGGGSDIQMTQSPSSLSASVGDRVTITCRASKSISKYLAWYQQKPGKAPKLLIHSGSSLESGVPSRFSGSGSGTEFTLTISSLQPDDFATYYCQQHIEYPWTFGQGTKVEIKEPKSSDKTHTCPPCPAPPAAAPSVFLFPPKPKDTLMISRTPEVTCVVVDVSHEDPEVKFNWYVDGVEVHNAKTKPREEQYNSTYRVVSVLTVLHQDWLNGKEYKCAVSNKALPAPIEKTISKAKGQPREPQVYTLPPSRDELTKNQVSLSCAVKGFYPSDIAVEWESNGQPENNYKTTPPVLDSDGSFFLVSKLTVDKSRWQQGNVFSCSVMHEALHNRFTQKSLSLSPGGGGSPSQVQLVQSGAEVKKPGASVKVSCKASGYTFTRSTMHWVRQAPGQGLEWIGYINPSSAYTNYAQKFQGRVTLTADKSTSTAYMELSSLRSEDTAVYYCASPQVHYDYNGFPYWGQGTLVTVSSGGGGSGGGGSGGGGSGGGGSDIQMTQSPSSLSASVGDRVTITCRASSSVSYMNWYQQKPGKAPKRWIYDSSKLASGVPSRFSGSGSGTDFTLTISSLQPEDFATYYCQQWSRNPPTFGQGTKVEIKRS
[2]
  fold reduction in binding potency against PSMA01072: ~200 fold
[3]
  EC50: > 204 nM
[4]
  EC50: 1 nM
[5]
  cytotoxic activity: ~10 fold
  fold decrease in T-cell activation and proliferation: ~3 fold

B3: PSMA01116 Anti-PSMA scFv x Fc x linker x Anti CD3 scFv; Anti PSMA scFv x Fc (bispecific antibody)
chain 1: QVQLVQSGAEVKKPGASVKVSCKASGYTFTDYYMHWVRQAPGQGLEWMGYFNPYNDYTRYAQKFQGRVTMTRDTSTSTVYMELSSLRSEDTAVYYCARSDGYYDAMDYWGQGTTVTVSSGGGGSGGGGSGGGGSGGGGSDIQMTQSPSSLSASVGDRVTITCRASKSISKYLAWYQQKPGKAPKLLIHSGSSLESGVPSRFSGSGSGTEFTLTISSLQPDDFATYYCQQHIEYPWTFGQGTKVEIKEPKSSDKTHTCPPCPAPPAAAPSVFLFPPKPKDTLMISRTPEVTCVVVDVSHEDPEVKFNWYVDGVEVHNAKTKPREEQYNSTYRVVSVLTVLHQDWLNGKEYKCAVSNKALPAPIEKTISKAKGQPREPQVYTLPPSRDELTKNQVSLWCLVKGFYPSDIAVEWESNGQPENNYKTTPPVLDSDGSFFLYSKLTVDKSRWQQGNVFSCSVMHEALHNHYTQKSLSLSPGGGGSPSQVQLVQSGAEVKKPGASVKVSCKASGYTFTRSTMHWVRQAPGQGLEWIGYINPSSAYTNYAQKFQGRVTLTADKSTSTAYMELSSLRSEDTAVYYCASPQVHYDYNGFPYWGQGTLVTVSSGGGGSGGGGSGGGGSGGGGSDIQMTQSPSSLSASVGDRVTITCRASSSVSYMNWYQQKPGKAPKRWIYDSSKLASGVPSRFSGSGSGTDFTLTISSLQPEDFATYYCQQWSRNPPTFGQGTKVEIK
chain 2: B2 chain 1 with W396S, L398A, Y437V
notes: Heterodimer, bivalent for PSMA and monovalent for CD3; also called PSM01116
mIgG Fc-human PSMA ECD
  Kd: 4.1 nM
mIgG Fc-cyno PSMA ECD
  Kd: 6.2 nM
[6]
  binding result: binds
[7]
  Kd: 5.2 nM
